From US11981731B2, “Targeting cytotoxic cells with chimeric receptors for adoptive immunotherapy” (Novartis AG, priority 2014, dated 2024)

Key:
K562-meso-HLACw = assay: KIR2DL3 suppression of KIR-CAR cytotoxicity, 51Cr release against K562-meso-HLACw; format: cell-based, human; conditions: coexpressed with SS1-KIRS2/DAP12, HLA-Cw on the target cells
Procedure: K562 cells (K562) or K562 cells expressing mesothelin (K562-meso) were transduced with the HLA-Cw3 allele followed by fluorescence activated cell sorting to obtain K562 cells expressing HLA-Cw with (K562-meso-HLACw) or without (K562-HLACw) expression of mesothelin. HLA-Cw3 expression was assessed by flow cytometry using an APC-conjugated monoclonal antibody that recognizes HLA-A, B and C alleles (clone W6/32).
Primary human T cells were stimulated with CD3/28 microbeads followed by lentiviral transduction with SS1-KIRS2 and DAP12 (SS1-KIRS2) or mock transduced (NTD) in combination with wild-type KIR2DL3. The T cells were expanded until the end of log-phase growth. The surface expression of the mesothelin-specific CAR and KIR2DL3 was determined by staining with mesothelin-Fc followed by PE-conjugated goat-anti-human Fc and a monoclonal antibody to the KIR2DL3 ectodomain.
T cell that were generated and characterized as described in FIG. 21 were mixed with 51-Cr labeled target K562 cells that were generated and characterized as described in FIG. 22. Cytotoxicity was determined by measuring the fraction of ^51Cr released into the supernatant at 4 hours compared target cells without effector cells.

[1] = tested on: mesothelioma-derived cells expressing mesothelin (EM-meso cells); assay: EM-meso subcutaneous xenograft in NSG mice, tumor volume by caliper; format: in vivo, mouse; conditions: 4 million T cells i.v. day 20
Procedure: 20 days following tumor implantation, each animal was injected intravenously with 5×10^6 T cells that were stimulated with anti-CD3/anti-CD28 stimulator beads followed lentiviral transduction with a series of CD3ζ-based CAR with or without a costimulatory domain (SS1-ζ, SS1-BBζ and SS1-28ζ) or the mesothelin-specific KIR-based CARs, SS1-KIRS2 with DAP12. Mock transduced T cells (NTD) were used as a control. Tumor volume was measured by caliper at the indicated times (n=7 mice per group). […] The frequency of human CD45+ T cells was assessed at the end of the experiment by flow cytometry, and data are expressed as a percentage of total viable cells in the blood, spleen and tumor digest. […] The frequency of CD3+ human lymphocytes in tumors at day 30 (10 days following CAR T infusion) was assessed by flow cytometry. […] 4 million T cells expressing DAP12 and dsRed (DAP12), SS1-28z or SS1-KIRS2 and DAP12 (SS1-KIRS2) were injected intravenously on day 20, and tumor volume was assessed over time via caliper measurement. […] Antigen-specific cytotoxicity was assessed by coculturing with firefly luciferase expressing EM-meso cells or EMp cells (parental EM cells lacking mesothelin expression) at indicated E:T ratios for 18 hours. […]
Animal models can also be used to measure activity of a CAR-expressing cell. […] Animals are assessed for tumor progression at weekly intervals. […]

[2] = tested on: K562 cells engineered to express mesothelin; assay: Antigen-triggered cytokine secretion; format: cell-based, human; conditions: Example 14, T cells:targets 2:1, 24 hours, ELISA
Procedure: Cytokine production of the huMeso-KIRS2-expressing CAR cells was also assessed. Primary human T cells were simulated, transduced with the huMes-KIRS2 and expanded as previously described. Following expansion, the transduced T cells were mixed with K562 (mesothelin-negative cells, empty bars) or K562 cells engineered to express mesothelin (black bars) at a ratio of 2:1. Cytokine concentrations (IFNγ and IL-2) were determined in supernatants following 24 hours of stimulation by ELISA for the indicated cytokines.

B1: KIR2DL3: wild-type KIR2DL3 inhibitory receptor co-expressed in T cells (SEQ ID NO: 345) (protein)
chain: MSLMVVSMVCVGFFLLQGAWPHEGVHRKPSLLAHPGPLVKSEETVILQCWSDVRFQHFLLHREGKFKDTLHLIGEHHDGVSKANFSIGPMMQDLAGTYRCYGSVTHSPYQLSAPSDPLDIVITGLYEKPSLSAQPGPTVLAGESVTLSCSSRSSYDMYHLSREGEAHERRFSAGPKVNGTFQADFPLGPATHGGTYRCFGSFRDSPYEWSNSSDPLLVSVTGNPSNSWPSPTEPSSETGNPRHLHVLIGTSVVIILFILLLFFLLHRWCCNKKNAVVMDQEPAGNRTVNREDSDEQDPQEVTYAQLNHCVFTQRKITRPSQRPKTPPTDIIVYTELPNAEP
Question: For B1, which “effect on antigen specific cytotoxicity of co-expressed KIR CAR” value (K562-meso-HLACw) is on record?
Answer: can suppress antigen specific cytotoxicity

B2: DAP12: T cells expressing DAP12 and dsRed; DAP12 adaptor molecule, SEQ ID NO: 368 (protein)
chain: MGGLEPCSRFLLLPLLLAVSGLRPVQVQAQSDCSCSTVSPGVLAGIVMGDLVLTVLIALAVYFLGRLVPRGRGAAEAATRKQRITETESPYQELQGQRSDVYSDLNTQRPYYK
Question: For B2, which “tumor eradication by DAP12-modified T cells” value [1] is on record?
Answer: require the mesothelin-specific KIR-based CAR for tumor eradication

B3: M16: human anti-mesothelin scFv, SEQ ID NO: 245 (protein)
scFv: EVQLVESGGGLVQPGRSLRLSCAASGFTFDDYAMHWVRQAPGKGLEWVSGISWNSGSTGYADSVKGRFTISRDNAKNSLYLQMNSLRAEDTALYYCAKDSSSWYGGGSAFDIWGQGTMVTVSSGGGGSGGGGSGGGGSSSELTQEPAVSVALGQTVRITCQGDSLRSYYASWYQQKPGQAPVLVIFGRSRRPSGIPDRFSGSSSGNTASLIITGAQAEDEADYYCNSRDNTANHYVFGTGTKLTVL
Question: B3 was tested. Which IL-2 production [2] did it give?
Answer: produced IL-2

B4: M17: human anti-mesothelin scFv, SEQ ID NO: 246 (protein)
scFv: EVQLVESGGGLVQPGRSLRLSCAASGFTFDDYAMHWVRQAPGKGLEWVSGISWNSGSTGYADSVKGRFTISRDNAKNSLYLQMNSLRAEDTALYYCAKDSSSWYGGGSAFDIWGQGTMVTVSSGGGGSGGGGSGGGGSSSELTQDPAVSVALGQTVRITCQGDSLRSYYASWYQQKPGQAPVLVIYGKNNRPSGIPDRFSGSSSGNTASLTITGAQAEDEADYYCNSRGSSGNHYVFGTGTKVTVL
Question: For B4, which IL-2 production [2] is on record?
Answer: produced IL-2
